Read-outs that look alike come from different tables or passages of the source.
How the values were obtained:
S. aureus isolates [1] = test: In vivo efficacy of daptomycin in combination with pp296, neutropenic murine thigh infection model; details: 24 h
Procedure: Study animals: Specific pathogen-free female ICR mice (average body weight 23 grams) were provided food and water ad libitum and maintained and used in accordance with National Research Council recommendations. Animals were allowed a 48-hour post-delivery acclimation period before every experiment. Mice were rendered transiently neutropenic by injection of cyclophosphamide via intraperitoneal (IP) route at a dose of 150 mg/kg of body weight at four days before bacterial inoculation and 100 mg/kg of body weight at one day before bacterial inoculation.
Neutropenic Thigh Infection Model: Two transfers of the bacterial isolates were performed onto trypticase soy agar plates with 5% sheep blood and placed into an incubator at 37° C. for approximately 24 hours. After an 18-24 hour incubation of the second transfer, a suspension of approximately 10^7 CFU/mL was made for inoculation. Final bacterial inoculum concentrations were confirmed by serial dilution and plating techniques. Thigh infection with the test isolate was produced by intramuscular injection of 0.1 mL of the bacterial inoculum into each thigh of the mice. Antimicrobial therapy was initiated 2 hours after bacterial inoculation, as detailed below.
Untreated control mice (n=3) were sacrificed just prior to antibiotic administration and 24 hours after bacterial inoculation. Animals sacrificed prior to antibiotic initiation served as 0-hour control animals, representing initial bacterial burden. […] Treatment mice (n=3/group) were sacrificed at the end of the 24 hour treatment period. After sacrifice, both thighs for each mouse were homogenized in normal saline. Serial dilutions were plated on Trypticase soy agar with 5% sheep blood and incubated for 18 to 20 hours at 37.0 to determine the CFU. Efficacy was calculated as the change in bacterial density obtained in treated mice after 24 hours compared with the numbers in the 0-hour control animals. Bacterial density represents the average CFU determined from 3 mice, each contributing 2 thighs.
For the 4 S. aureus isolates HPV107, CAIRD426, JMI227, and NRS123, the following sub-therapeutic daptomycin dosage regimen was adopted: 0.76 mg/kg at 0 hrs, 0.4 mg/kg at 4 hrs, 0.24 mg/kg at 10 hrs, and 0.12 mg/kg at 17 hrs.

[2] = system: 5 MSSA and 5 MRSA isolates; details: cited from earlier work
S. aureus isolates [3] = test: MIC determination (broth microdilution) against 8 S. aureus isolates; format: cell-based; parameters: MIC pp296 (AST media): unit not given beside the values; details: for MIC pp296 (mouse serum): 100% ICR mouse serum; for MIC pp296 (human serum): 100% human serum; for MIC pp296 (AST media): caMHB-HSD
Procedure: Suitable methods for assessing the activity of a modified lysin polypeptide as disclosed herein are well known in the art and described in the examples. […] For example, MIC values for a modified lysin polypeptide may be determined against e.g., laboratory Staphylococcus aureus strains, in e.g., Mueller-Hinton broth or Mueller-Hinton broth supplemented with serum, such as horse serum.
The pp296 MICs were determined based on (1) cation-adjusted Mueller-Hinton Broth with 25% horse serum and 0.5 mM DTT (caMHB-HSD); (2) human serum (100% serum); and (3) ICR mice (100% serum). Vancomycin and daptomycin MICs of the isolate strains were determined in accordance with the broth microdilution method as outlined by CLSI. Results of the MIC determination are shown below in Table 2. The bacterial isolates were frozen at −80° C. in skim milk.

B1: pp296: modified PlySs2 lysin, SEQ ID NO: 6: L92W, V104S, V128T, Y137S, Y164K, N184D, S198Q (protein)
chain: MTTVNEALNNVRAQVGSGVSVGNGECYALASWYERMISPDATVGLGAGVGWVSGAIGDTISAKNIGSSYNWQANGWTVSTSGPFKAGQIVTWGATPGNPYGHVSIVEAVDGDRLTILEQNYGGKRYPTRNYYSAASSRQQVVHYITPPGTVAQSAPNLAGSRSKRETGTMTVTVDALNVRRAPDTSGEIVAVYKRGEQFDYDTAIIDVNGYAWVSYIGGSGKRNYVATGATKDGKRFGNAWGTFK
mean bacterial density vs starting inoculum (S. aureus isolates [1]; pp296 0.5 mg/kg IV + sub-therapeutic daptomycin): 0.80±1.19 log10 CFU/thigh | mean bacterial density vs starting inoculum (S. aureus isolates [1]; pp296 50 mg/kg IV + sub-therapeutic daptomycin): −0.72±0.59 log10 CFU/thigh | average growth vs starting inoculum (S. aureus isolates [1]; pp296 50 mg/kg alone, 8 isolates (daptomycin study)): 1.36±1.35 log10 CFU/thigh | FIC index ([2]; with daptomycin): ~0.5 | FIC index ([2]; with vancomycin): ~0.5 | MIC pp296 (mouse serum) (S. aureus isolates [3]; ATCC 29213 MSSA): 256 | MIC pp296 (mouse serum) (S. aureus isolates [3]; CAIRD426 MRSA): 32 | MIC pp296 (mouse serum) (S. aureus isolates [3]; HPV107 MRSA): 128 | MIC pp296 (mouse serum) (S. aureus isolates [3]; JMI227 MRSA): 64 | MIC pp296 (mouse serum) (S. aureus isolates [3]; JMI4789 MRSA): 256 | MIC pp296 (mouse serum) (S. aureus isolates [3]; NRS100 (COL) MRSA): 32 | MIC pp296 (mouse serum) (S. aureus isolates [3]; NRS123 (MW2) MRSA): 256 | MIC pp296 (mouse serum) (S. aureus isolates [3]; NRS271 MRSA/LRSA): 64 | MIC pp296 (human serum) (S. aureus isolates [3]; ATCC 29213 MSSA): 1 | MIC pp296 (human serum) (S. aureus isolates [3]; CAIRD426 MRSA): 1 | MIC pp296 (human serum) (S. aureus isolates [3]; HPV107 MRSA): 1 | MIC pp296 (human serum) (S. aureus isolates [3]; JMI227 MRSA): 1 | MIC pp296 (human serum) (S. aureus isolates [3]; JMI4789 MRSA): 1 | MIC pp296 (human serum) (S. aureus isolates [3]; NRS100 (COL) MRSA): 1 | MIC pp296 (human serum) (S. aureus isolates [3]; NRS123 (MW2) MRSA): 1 | MIC pp296 (human serum) (S. aureus isolates [3]; NRS271 MRSA/LRSA): 0.5 | MIC pp296 (AST media) (S. aureus isolates [3]; ATCC 29213 MSSA): 1 | MIC pp296 (AST media) (S. aureus isolates [3]; CAIRD426 MRSA): 1 | MIC pp296 (AST media) (S. aureus isolates [3]; HPV107 MRSA): 1 | MIC pp296 (AST media) (S. aureus isolates [3]; JMI227 MRSA): 0.5 | MIC pp296 (AST media) (S. aureus isolates [3]; JMI4789 MRSA): 1 | MIC pp296 (AST media) (S. aureus isolates [3]; NRS100 (COL) MRSA): 1 | MIC pp296 (AST media) (S. aureus isolates [3]; NRS123 (MW2) MRSA): 1 | MIC pp296 (AST media) (S. aureus isolates [3]; NRS271 MRSA/LRSA): 1

— patent US20230277632A1, “MODIFIED PlySs2 LYSINS AND ANTIBIOTIC COMBINATIONS FOR USE AGAINST GRAM-POSITIVE BACTERIA” (ContraFect Corporation, priority 2020, published 2023)
